Series [1] relates to Lactococcus lactis alcohol dehydrogenase Ll_AdhA, SEQ ID NO: 67. Conditions: NADH as cofactor; cited from earlier work.
Substrate in series [2]: NC(=O)C1=CN([C@@H]2O[C@H](COP(=O)(O)OP(=O)(O)OC[C@H]3O[C@@H](n4cnc5c(N)ncnc54)[C@H](OP(=O)(O)O)[C@@H]3O)[C@@H](O)[C@H]2O)C=CC1
Put plainly: KARI cuvette assay, purified Ec_IlvC^B8-his6. The class given is biochemical, E. coli. The following applies: other: purified; acetolactate as substrate. On the procedure: (§1) KARI cuvette assay: KARI activity was assayed kinetically by monitoring the decrease in NAD(P)H concentration by measuring the absorbance at 340 nm. A reaction buffer was prepared containing 250 mM potassium phosphate pH 7, 1 mM DTT and 10 mM MgCl2. Cell pellets were resuspended (0.25 g wet weight/mL buffer) in 250 mM potassium phosphate (KPi) buffer containing 1 mM DTT and 10 mM MgCl2. The resuspended cells were lysed by sonication for 1 min with a 50% duty cycle and pelleted at 11000×g and 4° C. for 15 min. A reaction mixture consisting of 910 μl reaction buffer, 50 μl acetolactate, and 20 μl lysate was prepared in a cuvette. The reaction was initiated by addition of 20 μL of 10 mM NAD(P)H. A substrate free control was conducted using reaction buffer without the addition of acetolactate.
(§2) Purification of KARI: Cell pellets used for purification were resuspended in purification buffer A (20 mM Tris, 20 mM imidazol, 100 mM NaCl, 10 mM MgCl2, pH 7.4). KARI was purified by IMAC (Immobilized metal affinity chromatography) over a 1 ml Histrap High Performance (histrap HP) column pre-charged with Nickel (GE Healthcare) using an Akta FPLC system (GE Healthcare). The column was equilibrated with four column volumes (cv) of buffer A. After injecting the crude extract, the column was washed with buffer A for 2 cv, followed by a wash step with a mixture of 10% elution buffer B (20 mM Tris, 300 mM imidazol, 100 mM NaCl, 10 mM MgCl2, pH 7.4) for 5 cv. KARI variants were eluted at 40% buffer B and stored at 4° C.
(§3) As a next step, the gene encoding variant Ec_llvC^Q110V-his6 (SEQ ID NO: 23) was used as template to generate individual combinations of the mutation Q110V with other mutations: R68L, A71T, A71S, R76G, R76S, R76T, S78D, and R76D. After screening the variants as described above, the most promising ones were expressed, purified, and characterized. Table 29 lists the KM values in μM on NADPH and NADH for Ec_llvC^his6, Ec_llvC^Q110V-his6, and variants of Ec_llvC^Q110V-his6. […] The A71S mutation was introduced into Ec_llvC^B8-his6 resulting in a variant Ec_llvC^B8A71S-his6, which yielded 44% catalytic efficiency on NADH compared to the catalytic efficiency of wild-type KARI on NADPH (FIG. 19 and Table 30).

Substrate in series [3]: NC(=O)C1=CN([C@@H]2O[C@H](COP(=O)(O)OP(=O)(O)OC[C@H]3O[C@@H](n4cnc5c(N)ncnc54)[C@H](O)[C@@H]3O)[C@@H](O)[C@H]2O)C=CC1
Put plainly: KARI cuvette assay, purified Ec_IlvC^B8-his6. Type of series: biochemical, E. coli. On the procedure: as §1, §2, §3

Substrate in series [4]: NC(=O)C1=CN([C@@H]2O[C@H](COP(=O)(O)OP(=O)(O)OC[C@H]3O[C@@H](n4cnc5c(N)ncnc54)[C@H](OP(=O)(O)O)[C@@H]3O)[C@@H](O)[C@H]2O)C=CC1
Put plainly: KARI assay, purified Ec_IlvC^6E6-his6. Type of series: biochemical, E. coli. The following applies: other: Example 15, expressed in E. coli BL21(DE3), purified; 30.0 °C. On the procedure: as §1, §2
(§4) Only 20% of the enzymes of the recombination library were active on NADH. After screening 1,000 clones using the NADH depletion assay at 340 nm, 26 KARI variants were selected for a rescreen by the high-throughput assay described in Example 14 and eight thereof were expressed in 25 ml LBamp medium in shake flasks according to the protocol for cell growth and protein expression in shake flasks as described in Example 14, purified according to the protocol for purification of KARI enzymes as described in Example 14, and NAD(P)H depletion at 340 nm was measured again. […] The KM values of variants Ec_llvC^2H10-his6 and Ec_llvC^6E6-his6 were measured and the catalytic efficiencies were calculated.
(§5) Improved variants were expressed and purified from GEVO1186. 20 mL SC-URA medium overnight cultures were grown at 30° C. and 250 rpm in 250 mL flasks and were then used to inoculate 96 well deep well plates on the next morning. 50 μL of the overnight cultures were transferred into 600 μL SC-URA medium per well. The plates were then grown at 30° C. and 250 rpm in a humidified plate shaker for 8 h. In order to the harvest, the cultures were transferred into 50 mL Falcon tubes and then spun down at 4° C. and 5,000 rpm for 10 min. The pellets were frozen until they were processed and purified as described in Example 14 above.

Substrate in series [5]: NC(=O)C1=CN([C@@H]2O[C@H](COP(=O)(O)OP(=O)(O)OC[C@H]3O[C@@H](n4cnc5c(N)ncnc54)[C@H](O)[C@@H]3O)[C@@H](O)[C@H]2O)C=CC1
The experiment in a line: KARI assay, purified Ec_IlvC^6E6-his6. Type of series: biochemical, E. coli. Conditions: 30.0 °C. On the procedure: as §1, §2, §4, §5

Substrate in series [6]: NC(=O)C1=CN([C@@H]2O[C@H](COP(=O)(O)OP(=O)(O)OC[C@H]3O[C@@H](n4cnc5c(N)ncnc54)[C@H](OP(=O)(O)O)[C@@H]3O)[C@@H](O)[C@H]2O)C=CC1
Put plainly: KARI assay, purified Ec_IlvC^2H10-his6. The following applies: other: purified; acetolactate as substrate. Type of series: biochemical, E. coli. The procedure: as §1, §2, §4

Substrate in series [7]: NC(=O)C1=CN([C@@H]2O[C@H](COP(=O)(O)OP(=O)(O)OC[C@H]3O[C@@H](n4cnc5c(N)ncnc54)[C@H](O)[C@@H]3O)[C@@H](O)[C@H]2O)C=CC1
The experiment in a line: KARI assay, purified Ec_IlvC^2H10-his6. The class given is biochemical, E. coli. The following applies: other: purified; acetolactate as substrate. The procedure: as §1, §2, §4

Substrate in series [8]: NC(=O)C1=CN([C@@H]2O[C@H](COP(=O)(O)OP(=O)(O)OC[C@H]3O[C@@H](n4cnc5c(N)ncnc54)[C@H](OP(=O)(O)O)[C@@H]3O)[C@@H](O)[C@H]2O)C=CC1
The experiment in a line: KARI cuvette assay, purified Ec_IlvC^his6 (parent / wild type). The class given is biochemical, E. coli. The following applies: other: purified; acetolactate as substrate. The procedure:
as §1, §2
(§6) The three best variants Ec_llvC^S78D-his6, Ec_llvC^Q110A-his6, and Ec_llvC^Q110V-his6 were characterized according to their specific activities [U/mg], kcat values [s^−1], catalytic efficiencies [M^−1*s^−1] (FIG. 18), and KM values (Table 27).
as §4

Substrate in series [9]: NC(=O)C1=CN([C@@H]2O[C@H](COP(=O)(O)OP(=O)(O)OC[C@H]3O[C@@H](n4cnc5c(N)ncnc54)[C@H](O)[C@@H]3O)[C@@H](O)[C@H]2O)C=CC1
The description is as above. Type of series: biochemical, E. coli. The procedure: as §1, §2, §6, §4

[10] abbreviates: other: purified, acetolactate as substrate.
Setting [11] is: other: Example 15, expressed in E. coli BL21(DE3), purified.
Where [12] appears, read: other: Example 16, expressed in yeast GEVO1186, purified.

Usually Km stands for the substrate concentration at which the rate is half of its maximum. In general, kcat refers to the maximal rate divided by the concentration of active sites. A word on the kcat/Km: it is the turnover number divided by the Michaelis constant.

As to `CC=O` [Acetaldehyde], in series [1], the Km was 500 µM and the kcat is 10 s⁻¹.

Take `CC(C)C=O` [isobutyraldehyde]: in series [1], the Km is 9100 µM and the kcat is 6.6 s⁻¹.

B1: E. coli KARI Ec_IlvC variant Ec_IlvC^B8-his6 (Q110V, S78D), SEQ ID NO: 27 (Escherichia coli K-12; Q110V/S78D) (protein)
chain: MANYFNTLNLRQQLAQLGKCRFMGRDEFADGASYLQGKKVVIVGCGAQGLNQGLNMRDSGLDISYALRKEAIAEKRADWRKATENGFKVGTYEELIPQADLVINLTPDKVHSDVVRTVQPLMKDGAALGYSHGFNIVEVGEQIRKDITVVMVAPKCPGTEVREEYKRGFGVPTLIAVHPENDPKGEGMAIAKAWAAATGGHRAGVLESSFVAEVKSDLMGEQTILCGMLQAGSLLCFDKLVEEGTDPAYAEKLIQFGWETITEALKQGGITLMMDRLSNPAKLRAYALSEQLKEIMAPLFQKHMDDIISGEFSSGMMADWANDDKKLLTWREETGKTAFETAPQYEGKIGEQEYFDKGVLMIAMVKAGVELAFETMVDSGIIEESAYYESLHELPLIANTIARKRLYEMNVVISDTAEYGNYLFSYACVPLLKPFMAELQPGDLGKAIPEGAVDNGQLRDVNEAIRSHAIEQVGKKLRGYMTDMKRIAVAGLEHHHHHH
On to B1, for which the Km in series [2] and in [3] (setting [10]) was 65 µM in each case. For the same molecule, the kcat was found to be 2.2 s⁻¹ in [2] and 2.0 s⁻¹ in [3] (setting [10]). In addition, the results for the kcat/Km in [2], in [3] (setting [10]) and in [3] (with NADH) were 34,188 M^−1 * s^−1, 31,775 M^−1 * s^−1 and 34200 M⁻¹ s⁻¹, respectively.

B2: E. coli KARI Ec_IlvC variant Ec_IlvC^6E6-his6 (A71S, R76D, S78D, Q110V), SEQ ID NO: 34 (Escherichia coli K-12; A71S/Q110V/R76D/S78D) (protein)
chain: MANYFNTLNLRQQLAQLGKCRFMGRDEFADGASYLQGKKVVIVGCGAQGLNQGLNMRDSGLDISYALRKESIAEKDADWRKATENGFKVGTYEELIPQADLVINLTPDKVHSDVVRTVQPLMKDGAALGYSHGFNIVEVGEQIRKDITVVMVAPKCPGTEVREEYKRGFGVPTLIAVHPENDPKGEGMAIAKAWAAATGGHRAGVLESSFVAEVKSDLMGEQTILCGMLQAGSLLCFDKLVEEGTDPAYAEKLIQFGWETITEALKQGGITLMMDRLSNPAKLRAYALSEQLKEIMAPLFQKHMDDIISGEFSSGMMADWANDDKKLLTWREETGKTAFETAPQYEGKIGEQEYFDKGVLMIAMVKAGVELAFETMVDSGIIEESAYYESLHELPLIANTIARKRLYEMNVVISDTAEYGNYLFSYACVPLLKPFMAELQPGDLGKAIPEGAVDNGQLRDVNEAIRSHAIEQVGKKLRGYMTDMKRIAVAGLEHHHHHH
notes: T37 values cited for the gene on pGV1975
For B2, the Km in series [4] was found to be 653 µM; in series [5] (setting [11]), 31.6 µM; in series [5] (setting [12]), 39 µM. The kcat in series [4] was found to be 0.2 s⁻¹; in series [5] (setting [11]) it was 2.3 s⁻¹; in [5] (setting [12]), 2.4 s⁻¹. The results for the kcat/Km in series [4], in [5] (setting [11]) and in series [5] (setting [12]) were 386 M⁻¹ s⁻¹, 74045 M⁻¹ s⁻¹ and 63,000 M^−1 * S^−1, respectively.

B3: E. coli KARI Ec_IlvC variant Ec_IlvC^2H10-his6 (A71S, R76D, S78D, Q110A), SEQ ID NO: 31 (Escherichia coli K-12; A71S/Q110A/R76D/S78D) (protein)
chain: MANYFNTLNLRQQLAQLGKCRFMGRDEFADGASYLQGKKVVIVGCGAQGLNQGLNMRDSGLDISYALRKESIAEKDADWRKATENGFKVGTYEELIPQADLVINLTPDKAHSDVVRTVQPLMKDGAALGYSHGFNIVEVGEQIRKDITVVMVAPKCPGTEVREEYKRGFGVPTLIAVHPENDPKGEGMAIAKAWAAATGGHRAGVLESSFVAEVKSDLMGEQTILCGMLQAGSLLCFDKLVEEGTDPAYAEKLIQFGWETITEALKQGGITLMMDRLSNPAKLRAYALSEQLKEIMAPLFQKHMDDIISGEFSSGMMADWANDDKKLLTWREETGKTAFETAPQYEGKIGEQEYFDKGVLMIAMVKAGVELAFETMVDSGIIEESAYYESLHELPLIANTIARKRLYEMNVVISDTAEYGNYLFSYACVPLLKPFMAELQPGDLGKAIPEGAVDNGQLRDVNEAIRSHAIEQVGKKLRGYMTDMKRIAVAGLEHHHHHH
notes: T37 values cited for the gene on pGV1976
As to B3, in [6], the Km is 568 µM, the kcat came to 0.61 s⁻¹ and the kcat/Km is listed as 1,078 M^−1 * s^−1. Further, in series [7], the Km was found to be 44.2 µM, the kcat was determined as 2.6 s⁻¹ and the kcat/Km was found to be 60322 M⁻¹ s⁻¹.

B4: Escherichia coli KARI (ketol-acid reductoisomerase) Ec_IlvC^his6, wild type IlvC (SEQ ID NO: 13) with his6-tag, SEQ ID NO: 15 (Escherichia coli K-12) (protein)
chain: MANYFNTLNLRQQLAQLGKCRFMGRDEFADGASYLQGKKVVIVGCGAQGLNQGLNMRDSGLDISYALRKEAIAEKRASWRKATENGFKVGTYEELIPQADLVINLTPDKQHSDVVRTVQPLMKDGAALGYSHGFNIVEVGEQIRKDITVVMVAPKCPGTEVREEYKRGFGVPTLIAVHPENDPKGEGMAIAKAWAAATGGHRAGVLESSFVAEVKSDLMGEQTILCGMLQAGSLLCFDKLVEEGTDPAYAEKLIQFGWETITEALKQGGITLMMDRLSNPAKLRAYALSEQLKEIMAPLFQKHMDDIISGEFSSGMMADWANDDKKLLTWREETGKTAFETAPQYEGKIGEQEYFDKGVLMIAMVKAGVELAFETMVDSGIIEESAYYESLHELPLIANTIARKRLYEMNVVISDTAEYGNYLFSYACVPLLKPFMAELQPGDLGKAIPEGAVDNGQLRDVNEAIRSHAIEQVGKKLRGYMTDMKRIAVAGLEHHHHHH
Take B4: the Km in series [8] was 41 µM; in series [9] (setting [10]) it was 1,075 μM. Further, the kcat in series [8] amounted to 3.6 s⁻¹; in series [9] (setting [10]), 1.0 s⁻¹. The figures for the kcat/Km in series [8], in [9] (setting [10]) and in series [9] (with NADH) were 87300 M⁻¹ s⁻¹, 1,000 M^−1 * s^−1 and 87300 M⁻¹ s⁻¹, respectively.

These data come from US8097440B1, “Engineered microorganisms capable of producing target compounds under anaerobic conditions” (Gevo, Inc., priority 2008, dated 2012).
